Target: GAL4 DBD-tagged VIVIT PPTP chimeric peptide
Assay: two-hybrid; mammalian two-hybrid in HEK293T cells: GAL4 DBD-tagged peptides, VP16 activation domain-tagged CNAβ2 and pG5-luc cotransfected for 24 h, luciferase read-out; Fig. 4b with or without 1 μM ionomycin

fold change of the two-hybrid signal against L-1-2 WT: 1.93 fold | fold change of the two-hybrid signal against VIVIT 10-mer: 4.76 fold
Substance: VP16 activation domain-tagged CNAβ2

Source: paper PMC9166766
